Consider 10 molecules from paper PMC10598209 (Nature Communications, 2023).

Series [1] concerns the target T1, RSM, RECQ4(348-388) (Homo sapiens, UniProt O94761).
T1 chain: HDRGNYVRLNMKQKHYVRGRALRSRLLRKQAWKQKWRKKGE
As to the kind of experiment: NMR; 300 mM NaCl, pH 6.0, 288 K; FA: 25 mM KPO4 pH 6.5, 70 mM KCl (or 500 mM NaCl), 25 C; ITC: same low-salt buffer, 30 C; NMR dsDNA: 50 mM NaPO4 pH 6.0, 150 mM NaCl, 298 K; NMR G4: 25 mM KPO4. The following applies: protein: recombinant; tags: N-terminal His6-TEV construct (pET-M11); 10 bp duplex with unpaired TTTT arms (3' of strand 1, 5' of strand 2).

Series [2] deals with T1, RSM, RECQ4(348-388). As to the kind of experiment: ITC; 70 mM KCl, pH 6.5, 30 C; FA: 25 mM KPO4 pH 6.5, 70 mM KCl (or 500 mM NaCl), 25 C; ITC: same low-salt buffer, 30 C; NMR dsDNA: 50 mM NaPO4 pH 6.0, 150 mM NaCl, 298 K; NMR G4: 25 mM KPO4. The following applies: protein: recombinant, tags: N-terminal His6-TEV construct (pET-M11).
Series [3] concerns the target T2, sRSM, RECQ4(358-388) (Homo sapiens, UniProt O94761).
T2 chain: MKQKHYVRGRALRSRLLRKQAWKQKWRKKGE
As to the kind of experiment: stopped-flow/CD/NMR/light scattering global fit; Kd,1: initial 1:1 complex; FA: 25 mM KPO4 pH 6.5, 70 mM KCl (or 500 mM NaCl), 25 C; ITC: same low-salt buffer, 30 C; NMR dsDNA: 50 mM NaPO4 pH 6.0, 150 mM NaCl, 298 K; NMR G4: 25 mM KPO4. The following applies: intramolecular parallel G4.

The target in series [4] is T1, RSM, RECQ4(348-388). As to the kind of experiment: EMSA; FA: 25 mM KPO4 pH 6.5, 70 mM KCl (or 500 mM NaCl), 25 C; ITC: same low-salt buffer, 30 C; NMR dsDNA: 50 mM NaPO4 pH 6.0, 150 mM NaCl, 298 K; NMR G4: 25 mM KPO4. The following applies: protein: recombinant; tags: N-terminal His6-TEV construct (pET-M11); label: 5' FITC on strand 1; blunt. (Mobility shift assays separate free from complexed probe on a gel.)

For series [5], the target named is T2, sRSM, RECQ4(358-388). Described as above. The note with it: label: 5' FITC on strand 1; blunt.
The target in series [6] is T3, RECQ4(322-400) (Homo sapiens, UniProt O94761 322-400).
T3 sequence: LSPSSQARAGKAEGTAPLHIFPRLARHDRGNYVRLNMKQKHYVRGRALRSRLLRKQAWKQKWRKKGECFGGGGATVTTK
The experiment in a line: EMSA; profile indistinguishable from RSM and sRSM; FA: 25 mM KPO4 pH 6.5, 70 mM KCl (or 500 mM NaCl), 25 C; ITC: same low-salt buffer, 30 C; NMR dsDNA: 50 mM NaPO4 pH 6.0, 150 mM NaCl, 298 K; NMR G4: 25 mM KPO4. The note with it: protein: recombinant; tags: N-terminal His6-TEV construct (pET-M11); label: 5' FITC on strand 1; blunt.

Series [7] concerns the target T1, RSM, RECQ4(348-388). The experiment in a line: fluorescence anisotropy; low ionic strength (70 mM KCl); FA: 25 mM KPO4 pH 6.5, 70 mM KCl (or 500 mM NaCl), 25 C; ITC: same low-salt buffer, 30 C; NMR dsDNA: 50 mM NaPO4 pH 6.0, 150 mM NaCl, 298 K; NMR G4: 25 mM KPO4. The following applies: protein: recombinant, tags: N-terminal His6-TEV construct (pET-M11). In general terms: Fluorescence polarisation rises when a labelled molecule tumbles more slowly, as on binding a larger partner.

Series [8] concerns the target T3, RECQ4(322-400). As to the kind of experiment: NMR; only RSM residues affected; FA: 25 mM KPO4 pH 6.5, 70 mM KCl (or 500 mM NaCl), 25 C; ITC: same low-salt buffer, 30 C; NMR dsDNA: 50 mM NaPO4 pH 6.0, 150 mM NaCl, 298 K; NMR G4: 25 mM KPO4. The note with it: protein: recombinant; tags: N-terminal His6-TEV construct (pET-M11); label: 5' FITC on strand 1 (FA); blunt.

The target of series [9] is T1, RSM, RECQ4(348-388). As to the kind of experiment: NMR 2D lineshape analysis (competition with RPA32C); 150 mM NaCl, pH 6.0, 298 K; kon 1.5e10 M-1 s-1; FA: 25 mM KPO4 pH 6.5, 70 mM KCl (or 500 mM NaCl), 25 C; ITC: same low-salt buffer, 30 C; NMR dsDNA: 50 mM NaPO4 pH 6.0, 150 mM NaCl, 298 K; NMR G4: 25 mM KPO4. The following applies: protein: recombinant; tags: N-terminal His6-TEV construct (pET-M11); label: 5' FITC on strand 1 (FA); blunt.

The target in series [10] is T4, RPA32C, RPA32(172−270) (human, UniProt P15927 172-270).
T4 construct: Used 15N-labelled or unlabelled in NMR; unlabelled in ITC; also called RPA32C domain; source: E. coli BL21(DE3), purified (IMAC, TEV cleavage, second IMAC, Superdex 75); not shown: His6, N-terminal, cleaved
As to the kind of experiment: NMR titration; 1H-15N HSQC of 50 or 100 μM 15N-labelled protein (RECQ4 or RPA) with step-wise addition or an excess of the unlabelled partner; buffer and temperature in Supplementary Table 6. The note with it: both partners purified.

The target in series [11] is T4, RPA32C, RPA32(172−270). The experiment in a line: NMR titration; 2D lineshape analysis (TITAN v1.6) of 1H-15N HSQC titrations of 50 μM 15N RSM with RPA32C (up to 16× excess) and dsDNA (up to 4× excess) and their competition; four titrations, 24 spectra, 16 residues fitted globally to a competitive binding model. The following applies: both partners purified.
Series [12] addresses T2, sRSM, RECQ4(358-388). As to the kind of experiment: NMR; largest CSP at 5'-end G-tetrad; FA: 25 mM KPO4 pH 6.5, 70 mM KCl (or 500 mM NaCl), 25 C; ITC: same low-salt buffer, 30 C; NMR dsDNA: 50 mM NaPO4 pH 6.0, 150 mM NaCl, 298 K; NMR G4: 25 mM KPO4. The following applies: label: 5' FITC (FA); intramolecular hybrid G4.
The target in series [13] is T5, RSM 5E mutant (Homo sapiens, UniProt O94761 348-388, R375E;K376E;K380E;K382E;R384E).
T5 chain: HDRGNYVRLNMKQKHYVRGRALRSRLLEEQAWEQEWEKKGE
The experiment in a line: NMR; binding not detectable, no droplets; FA: 25 mM KPO4 pH 6.5, 70 mM KCl (or 500 mM NaCl), 25 C; ITC: same low-salt buffer, 30 C; NMR dsDNA: 50 mM NaPO4 pH 6.0, 150 mM NaCl, 298 K; NMR G4: 25 mM KPO4. The note with it: protein: recombinant; tags: N-terminal His6-TEV construct (pET-M11); label: 5' FITC (FA); intramolecular hybrid G4.

Series [14] deals with T1, RSM, RECQ4(348-388). The experiment in a line: fluorescence anisotropy; low ionic strength (70 mM KCl); submicromolar; FA: 25 mM KPO4 pH 6.5, 70 mM KCl (or 500 mM NaCl), 25 C; ITC: same low-salt buffer, 30 C; NMR dsDNA: 50 mM NaPO4 pH 6.0, 150 mM NaCl, 298 K; NMR G4: 25 mM KPO4. The following applies: protein: recombinant, tags: N-terminal His6-TEV construct (pET-M11).
[15] abbreviates: label: 5' FITC (FA), intramolecular hybrid G4.

T4 sequence (P15927 172-270): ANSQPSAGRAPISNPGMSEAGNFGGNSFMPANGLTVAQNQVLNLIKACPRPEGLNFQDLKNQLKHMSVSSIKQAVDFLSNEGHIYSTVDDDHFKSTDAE

B1: splayed-arm Y14 (dsDNA)
DNA 1: CAGCGCTCGGTTTT
DNA 2: TTTTCCGAGCGCTG
For the molecule B1, the binding result in [1] is “binds”.

B2: T95-2T parallel G4 (structured_DNA)
DNA: TTGGGTGGGTGGGTGGGT
As usually defined, the Kd is the free concentration of one partner at which half of the binding sites on the other are occupied at equilibrium, for simple one-to-one binding. Consider B2, for which the dissociation constant (Kd) is 200 ± 80 nM in [2] (intramolecular parallel G4) and 3100 ± 200 nM in series [3].

B3: ds49 (dsDNA)
DNA 1: AGCTACCATGCCTGCACGAATTAAGCAATTCGTAATCATGGTCATAGCT
DNA 2: AGCTATGACCATGATTACGAATTGCTTAATTCGTGCAGGCATGGTAGCT
As to B3, the binding result in series [4], in series [5] and in series [6] was “binds” throughout.

B4: ss10 (ssDNA)
DNA: CAGCGCTCGG
Turning to B4, the Kd in series [7] (label: 5' FITC (FA)) is about 1000 nM.

B5: ds10 (dsDNA)
DNA 1: CAGCGCTCGG
DNA 2: CCGAGCGCTG
With B5, the binding result in series [8] is on record as “binds”. Also, the Kd in series [7] (label: 5' FITC on strand 1 (FA), blunt) is about 1000 nM; in series [9], 6300 ± 600 nM.

B6: RECQ4(322–400) (domain or fragment, human, UniProt O94761 322-400, looked up)
chain: LSPSSQARAGKAEGTAPLHIFPRLARHDRGNYVRLNMKQKHYVRGRALRSRLLRKQAWKQKWRKKGECFGGGGATVTTK
notes: Used 15N-labelled or unlabelled in NMR; source: E. coli BL21(DE3), purified (IMAC, TEV cleavage, Mono S, Superdex 75); not shown: His6, N-terminal, cleaved
In the case of B6, in [10], the binding result is on record as “binds”.

B7: RECQ4-specific motif (RSM), RECQ4(348–388) (domain or fragment, human, UniProt O94761 348-388, looked up)
chain: HDRGNYVRLNMKQKHYVRGRALRSRLLRKQAWKQKWRKKGE
notes: H. sapiens RECQ4 residues 348-388 (RSM), cloned in pET-M11; Used 15N-labelled or unlabelled in NMR; unlabelled in ITC; source: E. coli BL21(DE3), purified (IMAC, TEV cleavage, Mono S, Superdex 75); not shown: His6, N-terminal, cleaved
As a reminder, the kon is the rate constant with which the complex forms. For B7, in series [11], the Kd amounted to 117000 nM and the kon amounted to 2.4e+08 M⁻¹ s⁻¹.

B8: RSM W379A/W383A (domain or fragment, human, UniProt O94761 348-388, looked up)
chain: HDRGNYVRLNMKQKHYVRGRALRSRLLRKQAAKQKARKKGE
notes: H. sapiens RECQ4 residues 348-388 with W379A and W383A, made from the RECQ4(348–388) expression vector; also called RSM double tryptophan mutant; source: E. coli BL21(DE3), purified; not shown: His6, N-terminal, cleaved
With B8, the binding result in [10] is listed as “binds”.

B9: HT hybrid G4 (structured_DNA)
DNA: TTGGGTTAGGGTTAGGGTTAGGGA
For the molecule B9, the figures for the equilibrium dissociation constant (Kd) in [2] (setting [15]) and in [14] (setting [15]) were 420 ± 140 nM and under 1000 nM, respectively. For the same molecule, the binding result in series [12] was “binds”; in series [13], “no binding”.

B10: CEB1 parallel G4 (structured_DNA)
DNA: AGGGGGGAGGGAGGGTGG
Turning to B10, in [14] (label: 5' FITC or Cy3 (FA, EMSA), parallel G4), the Kd is under 1000 nM.
